Test results: US20220273679A1, “METHODS AND COMPOSITIONS FOR TREATING AND PREVENTING DAMAGE TO SKIN” (New York Society for the Relief of the Ruptured and …, priority 2019, published 2022)

B1: EGF: EGFR-ligand cited as stimulating ADAM17 (protein, UniProt P01133 23-1207, looked up)
Pro-epidermal growth factor: PQHWSCPEGTLAGNGNSTCVGPAPFLIFSHGNSIFRIDTEGTNYEQLVVDAGVSVIMDFHYNEKRIYWVDLERQLLQRVFLNGSRQERVCNIEKNVSGMAINWINEEVIWSNQQEGIITVTDMKGNNSHILLSALKYPANVAVDPVERFIFWSSEVAGSLYRADLDGVGVKALLETSEKITAVSLDVLDKRLFWIQYNREGSNSLICSCDYDGGSVHISKHPTQHNLFAMSLFGDRIFYSTWKMKTIWIANKHTGKDMVRINLHSSFVPLGELKVVHPLAQPKAEDDTWEPEQKLCKLRKGNCSSTVCGQDLQSHLCMCAEGYALSRDRKYCEDVNECAFWNHGCTLGCKNTPGSYYCTCPVGFVLLPDGKRCHQLVSCPRNVSECSHDCVLTSEGPLCFCPEGSVLERDGKTCSGCSSPDNGGCSQLCVPLSPVSWECDCFPGYDLQLDEKSCAASGPQPFLLFANSQDIRHMHFDGTDYGTLLSQQMGMVYALDHDPVENKIYFAHTALKWIERANMDGSQRERLIEEGVDVPEGLAVDWIGRRFYWTDRGKSLIGRSDLNGKRSKIITKENISQPRGIAVHPMAKRLFWTDTGINPRIESSSLQGLGRLVIASSDLIWPSGITIDFLTDKLYWCDAKQSVIEMANLDGSKRRRLTQNDVGHPFAVAVFEDYVWFSDWAMPSVMRVNKRTGKDRVRLQGSMLKPSSLVVVHPLAKPGADPCLYQNGGCEHICKKRLGTAWCSCREGFMKASDGKTCLALDGHQLLAGGEVDLKNQVTPLDILSKTRVSEDNITESQHMLVAEIMVSDQDDCAPVGCSMYARCISEGEDATCQCLKGFAGDGKLCSDIDECEMGVPVCPPASSKCINTEGGYVCRCSEGYQGDGIHCLDIDECQLGEHSCGENASCTNTEGGYTCMCAGRLSEPGLICPDSTPPPHLREDDHHYSVRNSDSECPLSHDGYCLHDGVCMYIEALDKYACNCVVGYIGERCQYRDLKWWELRHAGHGQQQKVIVVAVCVVVLVMLLLLSLWGAHYYRTQKLLSKNPKNPYEESSRDVRSRRPADTEDGMSSCPQPWFVVIKEHQDLKNGGQPVAGEDGQAADGSMQPTSWRQEPQLCGMGTEQGCWIPVSSDKGSCPQVMERSFHMPSYGTQTLEGGVEKPHSLLSANPLWQQRALDPPHQMELTQ
modifications: Pro-epidermal growth factor
notes: EGFR-ligand cited as stimulating ADAM17
B2: heparin-binding EGF-like growth factor (protein)
chain: DLQEADLDLLRVTLSSKPQALATPNKEEHGKRKKKGKGLGKKRDPCLRKYKDFCIHGECKYVKELRAPSCICHPGYHGERCHGLSL

Key:
ADAM17 = conditions: mouse embryonic fibroblasts; cited from earlier work
LC-Ad17 mice = experiment: UVR-induced keratinocyte apoptosis and monocyte numbers in ears of LC-Ad17 mice; type: in vivo, mouse; conditions: applied on ears prior to UVR, 24 hours
Procedure: FIGS. 5A-5H. LC-derived ADAM17 limits UVR-induced keratinocyte apoptosis and skin injury. (5A-5D) Graphs showing WT and LC-Ad17 mice were treated with UVR and analyzed at indicated time points. (5A) Graph showing activated caspase-3+ keratinocytes (n=3-5 mice). […] (5C) Graph showing epidermal thickness (n=3-4 mice). (5D) Graph showing quantification of epidermal permeability (n=3-5 mice). (5E,5F) Vehicle or HB-EGF was applied on the ears prior to UVR exposure (n=3-4 mice). (5E) Graph showing activated caspase-3+ keratinocytes. (5F) Graphs showing absolute (left) and normalized (right) monocyte numbers. (5G,5H) Effect of LC Adam17 deletion or ADAM17 blockade on keratinocyte survival in vitro. Murine keratinocytes with LCs from indicated mice (5G) and human keratinocytes with control-IgG or anti-ADAM17-treated LCs (5H) were exposed to UVR and examined at 24 hours (n=3 mice or 4 human donors). Data are from 3 (5E-5G), 4 (5A), 2 (5H), 5 (5B), and 1 (5C,5D) independent experiments. Bars represent means (5A,5B,5D-H) or medians (5C).

MRL-Faslpr mice = experiment: Multi-day UVR lesion development in MRL-Faslpr SLE model mice with topical treatment; type: in vivo, mouse
Procedure: FIGS. 8A-8C. Topical EGFR ligand reduces photosensitivity. (8A) Experimental scheme for (B-C) (n=4 mice). MRL-Faslpr mice ears and back skin were topically treated with HB-EGF for 2 days before and on the first day of UVR exposure and examined 24 hours after the final exposure. Ears were treated with Control plus vehicle, UVR plus vehicle, UVR+ HB-EGF and MRL-MpJ UVR+ vehicle. The MRL-MpJ ear represents a non-SLE control. (8C) Graph of ear histopathology scores. (8C) Graph of absolute monocyte numbers. Data are from 3 independent experiments. Bars represent means.
FIGS. 18A-18B. EGFR ligand application reduces the severity of UVR-induced skin lesions and lymph node B cell responses in SLE model mice. Mice were treated with HB-EGF (n=4 mice). Lesional areas are seen in magnified images of back lesions (not shown). Neutrophil-dominant infiltrate and ulceration are seen in H&E images of ear skin (not shown). (18A, 18B) Germinal center B cell (18A) and plasma cell (18B) numbers in skin draining lymph nodes (auricular and inguinal) normalized to mice treated with UVR+ vehicle. Each symbol represents either inguinal or auricular lymph nodes from multiple mice. Data from 2 independent experiments. Bars represent means.
The remaining hair on the back skin of the mice was removed using Nair and photographs were taken. The total back area and lesional area (skin affected by erythema, scaliness, crustiness, or epidermal erosion) was measured by a blinded observer using ImageJ software and skin lesions were quantified as percent of back area.
Skin histopathology scoring: A blinded expert dermatopathologist scored H&E stained sections based on dermal inflammation (0-3).

Langerin-DTA mice = experiment: UVR-induced keratinocyte apoptosis and monocyte accumulation in ears of Langerin-DTA mice; conditions: 2 ug per ear 15 minutes prior to UVR, 24 hours after UVR
Procedure: (3C,3D) Mouse ears were treated with vehicle or HB-EGF prior to UVR and examined 24 hours after UVR (n=3-4 mice). (3C) Graph of activated caspase-3+ keratinocytes. (3D) Graph of absolute (left) and normalized (right) monocyte numbers. […] Bars represent means. Error bars depict standard deviations.
For indicated 24 hour experiments, HB-EGF (2 ug; R&D Systems) dissolved in dimethyl sulfoxide (DMSO) was applied to each ear 15 minutes prior to UVR exposure.
For immunofluorescence staining of murine skin, frozen unfixed mouse skin was sectioned, fixed with cold acetone for 10 minutes, and stained as indicated (15). Epidermal activated caspase-3+ cells per high powered field (40× magnification) were quantified by a blinded observer using ImageJ software (NIH) and classified as activated caspase-3+ keratinocytes (Langerin− and CD3−), LCs (Langerin+), or T cells (CD3+).

[1] = MRL-Faslpr mice, topical, multi-day UVR
[2] = MRL/lpr lupus model, topical application

Row | Molecule | ADAM17 activation (ADAM17) | UVR-induced skin inflammation (monocyte numbers) (LC-Ad17 mice) | increased UVR-induced keratinocyte apoptosis (LC-Ad17 mice) | severity of UVR-induced skin lesions (MRL-Faslpr mice; MRL-Faslpr mice, topical on ears and back for three consecutive days, 6 days UVR) | germinal center B cells in skin-draining lymph nodes (MRL-Faslpr mice; [1]) | plasma cells in skin-draining lymph nodes (MRL-Faslpr mice; [1]) | monocyte accumulation (MRL-Faslpr mice; MRL-Faslpr mice, topical, multi-day UVR, 24 hours after final exposure) | photosensitivity (MRL-Faslpr mice; [2]) | skin-draining lymph node (B cell) responses (MRL-Faslpr mice; [2]) | skin-draining lymph node (B cell) responses (MRL-Faslpr mice; MRL/lpr lupus model, topical application, listed as Hb-EGF) | UVR-induced apoptotic keratinocyte accumulation (Langerin-DTA mice) | UVR-induced monocyte accumulation (Langerin-DTA mice)
1 | B1 | activated | – | – | – | – | – | – | – | – | – | – | –
2 | B2 | – | dampened | dampened | reduced the severity | reduced | reduced | reduced | reduces | reduction | reduces | reduced | reduced
